No end group written: not given here.
Tests used:
[1] = target: T1, Elongation factor 1-alpha 1 (human, UniProt P68104 2-462); assay: PIF-agarose affinity extraction, liver lysate column of Table 4 (row 'Eef1a1')
T1 construct: also called Eef1a1
T1 sequence (looked up): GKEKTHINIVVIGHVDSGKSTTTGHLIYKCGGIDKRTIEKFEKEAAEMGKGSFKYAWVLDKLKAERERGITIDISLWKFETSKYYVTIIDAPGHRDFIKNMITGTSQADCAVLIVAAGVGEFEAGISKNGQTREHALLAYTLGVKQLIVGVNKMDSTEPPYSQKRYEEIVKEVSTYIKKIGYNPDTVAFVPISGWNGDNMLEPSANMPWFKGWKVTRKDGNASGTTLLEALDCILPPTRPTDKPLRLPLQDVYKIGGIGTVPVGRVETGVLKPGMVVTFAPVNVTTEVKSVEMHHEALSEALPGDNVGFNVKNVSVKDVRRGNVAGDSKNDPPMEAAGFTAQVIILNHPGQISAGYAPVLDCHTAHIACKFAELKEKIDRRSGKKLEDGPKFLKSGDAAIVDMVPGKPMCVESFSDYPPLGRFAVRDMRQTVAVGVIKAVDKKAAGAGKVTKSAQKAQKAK

Nucleolin = Nucleolin (human, UniProt P19338 2-710); assay: PIF-agarose affinity extraction, liver lysate column of Table 4
[2] = target: Eukaryotic initiation factor 4A-I (human, UniProt P60842 2-406); assay: as above
[3] = target: Isoform 2 of Tropomyosin alpha-3 chain (human, UniProt P06753-2 2-248); assay: as above
Alpha-actinin-1 = Alpha-actinin-1 (human, UniProt P12814 1-892); assay: as above
[4] = target: T2, 14-3-3 protein beta/alpha (human, UniProt P31946 1-246); assay: as above
T2 sequence (looked up): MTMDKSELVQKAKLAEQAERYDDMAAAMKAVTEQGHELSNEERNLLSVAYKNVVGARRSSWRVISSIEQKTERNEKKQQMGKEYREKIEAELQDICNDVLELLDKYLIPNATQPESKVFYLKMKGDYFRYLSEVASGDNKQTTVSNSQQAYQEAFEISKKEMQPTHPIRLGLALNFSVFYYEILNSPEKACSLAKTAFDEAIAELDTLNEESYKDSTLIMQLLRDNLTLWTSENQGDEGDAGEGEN

PRDX4 = target: T3, PRDX4 (human, UniProt Q13162 38-271); assay: as above
T3 sequence (looked up): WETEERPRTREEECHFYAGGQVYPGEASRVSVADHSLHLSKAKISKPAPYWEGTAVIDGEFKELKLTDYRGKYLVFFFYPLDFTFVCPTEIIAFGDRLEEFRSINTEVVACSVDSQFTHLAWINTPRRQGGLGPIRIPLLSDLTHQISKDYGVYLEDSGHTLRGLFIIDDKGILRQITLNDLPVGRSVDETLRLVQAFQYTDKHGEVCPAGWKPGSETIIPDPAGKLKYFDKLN

[5] = target: Isoform 2 of Heat shock protein HSP 90-alpha (human, UniProt P07900-2 1-854, limits assumed); assay: as above
[6] = target: Serine/arginine-rich-splicing factor 1 (human, UniProt Q07955 2-248); assay: as above
[7] = target: T4, D-3-phosphoglycerate dehydrogenase (human, UniProt O43175 2-533); assay: as above
T4 sequence (looked up): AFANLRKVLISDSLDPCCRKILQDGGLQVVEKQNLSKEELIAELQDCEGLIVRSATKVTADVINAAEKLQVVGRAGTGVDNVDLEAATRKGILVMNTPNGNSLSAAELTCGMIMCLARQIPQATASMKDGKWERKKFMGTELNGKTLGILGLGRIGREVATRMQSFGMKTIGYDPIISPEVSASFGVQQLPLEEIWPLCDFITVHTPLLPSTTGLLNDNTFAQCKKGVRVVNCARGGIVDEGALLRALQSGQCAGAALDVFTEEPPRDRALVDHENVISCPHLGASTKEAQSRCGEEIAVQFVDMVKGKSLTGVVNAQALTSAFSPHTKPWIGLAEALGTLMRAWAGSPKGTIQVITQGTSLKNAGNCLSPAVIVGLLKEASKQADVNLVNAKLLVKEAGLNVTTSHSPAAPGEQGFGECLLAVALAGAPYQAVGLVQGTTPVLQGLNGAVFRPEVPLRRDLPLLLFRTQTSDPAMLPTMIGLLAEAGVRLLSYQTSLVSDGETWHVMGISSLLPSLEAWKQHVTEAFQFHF

Cytochrome P450 26A1 = target: T5, Cytochrome P450 26A1 (human, UniProt O43174 1-497); assay: as above
T5 sequence (looked up): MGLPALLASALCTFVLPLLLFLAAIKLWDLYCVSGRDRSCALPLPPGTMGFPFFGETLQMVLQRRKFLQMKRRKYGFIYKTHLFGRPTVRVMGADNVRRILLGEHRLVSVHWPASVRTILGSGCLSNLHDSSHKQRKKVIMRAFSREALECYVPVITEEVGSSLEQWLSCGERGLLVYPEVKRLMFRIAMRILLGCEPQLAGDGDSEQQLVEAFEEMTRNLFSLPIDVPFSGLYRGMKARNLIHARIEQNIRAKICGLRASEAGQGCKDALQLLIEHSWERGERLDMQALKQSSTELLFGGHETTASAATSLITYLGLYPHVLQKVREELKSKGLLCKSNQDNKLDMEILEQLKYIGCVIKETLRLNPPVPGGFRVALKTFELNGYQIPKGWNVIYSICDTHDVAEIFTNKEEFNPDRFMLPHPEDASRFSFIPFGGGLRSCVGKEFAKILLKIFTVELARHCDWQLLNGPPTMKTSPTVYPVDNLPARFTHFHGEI

Cofilin-1 = Cofilin-1 (human, UniProt P23528 2-166); assay: as above

Measured: binding result

Serine/arginine-rich-splicing factor 1, sequence (Q07955 2-248 limits assumed): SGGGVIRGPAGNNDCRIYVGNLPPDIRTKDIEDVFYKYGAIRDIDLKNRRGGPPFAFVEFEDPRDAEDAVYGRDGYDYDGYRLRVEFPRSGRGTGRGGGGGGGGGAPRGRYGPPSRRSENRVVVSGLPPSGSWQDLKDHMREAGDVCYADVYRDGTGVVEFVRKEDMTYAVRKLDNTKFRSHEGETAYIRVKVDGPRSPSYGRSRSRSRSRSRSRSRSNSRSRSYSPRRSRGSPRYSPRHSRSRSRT
Alpha-actinin-1, sequence (P12814 whole entry): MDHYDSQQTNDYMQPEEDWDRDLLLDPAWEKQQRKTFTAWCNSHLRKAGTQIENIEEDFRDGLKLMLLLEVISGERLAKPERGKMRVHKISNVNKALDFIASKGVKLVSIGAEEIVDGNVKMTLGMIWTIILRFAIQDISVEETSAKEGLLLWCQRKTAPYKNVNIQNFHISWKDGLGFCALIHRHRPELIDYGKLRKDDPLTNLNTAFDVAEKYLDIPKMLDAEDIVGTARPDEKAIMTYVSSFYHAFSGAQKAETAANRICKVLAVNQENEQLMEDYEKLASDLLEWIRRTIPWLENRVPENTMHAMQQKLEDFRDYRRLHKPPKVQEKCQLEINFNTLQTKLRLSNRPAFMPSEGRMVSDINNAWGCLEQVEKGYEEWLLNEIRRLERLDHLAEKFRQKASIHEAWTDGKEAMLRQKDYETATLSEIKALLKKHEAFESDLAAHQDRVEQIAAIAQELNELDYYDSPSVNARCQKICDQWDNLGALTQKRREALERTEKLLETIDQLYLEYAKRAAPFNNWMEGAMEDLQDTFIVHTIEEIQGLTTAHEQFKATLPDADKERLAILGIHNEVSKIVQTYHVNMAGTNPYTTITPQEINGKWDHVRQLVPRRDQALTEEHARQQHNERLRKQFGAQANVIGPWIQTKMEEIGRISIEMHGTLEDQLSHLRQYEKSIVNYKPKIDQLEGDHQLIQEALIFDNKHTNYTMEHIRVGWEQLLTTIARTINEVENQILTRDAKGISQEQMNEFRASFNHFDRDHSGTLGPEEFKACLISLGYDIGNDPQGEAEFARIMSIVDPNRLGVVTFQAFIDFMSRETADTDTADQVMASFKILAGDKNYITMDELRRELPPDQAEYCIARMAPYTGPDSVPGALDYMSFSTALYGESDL
Nucleolin, sequence (P19338 2-710 limits assumed): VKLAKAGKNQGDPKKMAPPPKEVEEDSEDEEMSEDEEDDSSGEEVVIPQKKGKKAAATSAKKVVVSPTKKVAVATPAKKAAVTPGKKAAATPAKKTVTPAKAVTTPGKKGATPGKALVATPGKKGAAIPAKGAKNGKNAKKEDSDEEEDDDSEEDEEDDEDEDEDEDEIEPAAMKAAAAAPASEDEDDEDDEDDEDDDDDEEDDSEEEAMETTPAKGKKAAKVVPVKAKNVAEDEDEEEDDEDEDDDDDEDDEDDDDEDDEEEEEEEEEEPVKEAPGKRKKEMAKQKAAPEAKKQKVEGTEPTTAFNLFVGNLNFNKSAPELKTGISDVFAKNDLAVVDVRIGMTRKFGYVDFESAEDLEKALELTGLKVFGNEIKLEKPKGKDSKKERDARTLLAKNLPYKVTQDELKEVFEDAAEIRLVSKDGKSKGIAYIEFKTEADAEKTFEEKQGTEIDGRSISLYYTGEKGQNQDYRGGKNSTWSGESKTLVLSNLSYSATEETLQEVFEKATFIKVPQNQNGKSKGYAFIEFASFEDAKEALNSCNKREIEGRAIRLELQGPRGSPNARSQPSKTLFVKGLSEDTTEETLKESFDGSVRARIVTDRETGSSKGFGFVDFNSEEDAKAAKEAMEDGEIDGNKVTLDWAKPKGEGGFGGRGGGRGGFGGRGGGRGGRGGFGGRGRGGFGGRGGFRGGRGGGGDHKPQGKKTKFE
Eukaryotic initiation factor 4A-I, sequence (P60842 2-406 limits assumed): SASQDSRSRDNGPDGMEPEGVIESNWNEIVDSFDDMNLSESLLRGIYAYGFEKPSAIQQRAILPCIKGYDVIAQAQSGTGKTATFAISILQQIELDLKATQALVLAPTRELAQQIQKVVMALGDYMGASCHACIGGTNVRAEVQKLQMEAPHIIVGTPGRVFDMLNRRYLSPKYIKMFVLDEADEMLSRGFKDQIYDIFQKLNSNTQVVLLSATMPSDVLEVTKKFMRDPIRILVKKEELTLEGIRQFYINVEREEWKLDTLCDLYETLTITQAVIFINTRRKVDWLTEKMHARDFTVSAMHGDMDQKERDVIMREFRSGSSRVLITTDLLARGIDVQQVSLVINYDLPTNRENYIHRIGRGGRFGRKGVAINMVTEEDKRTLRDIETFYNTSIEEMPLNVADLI
Isoform 2 of Tropomyosin alpha-3 chain, sequence (P06753 other isoform, or with tags, fused parts or gaps limits assumed): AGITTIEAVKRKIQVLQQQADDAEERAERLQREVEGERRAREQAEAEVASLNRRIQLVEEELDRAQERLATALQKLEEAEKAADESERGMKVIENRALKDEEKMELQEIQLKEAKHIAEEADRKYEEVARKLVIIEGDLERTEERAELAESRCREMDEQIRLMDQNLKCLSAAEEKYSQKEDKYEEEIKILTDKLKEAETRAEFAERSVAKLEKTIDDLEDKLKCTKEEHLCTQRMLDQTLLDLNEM
Cofilin-1, sequence (P23528 2-166 limits assumed): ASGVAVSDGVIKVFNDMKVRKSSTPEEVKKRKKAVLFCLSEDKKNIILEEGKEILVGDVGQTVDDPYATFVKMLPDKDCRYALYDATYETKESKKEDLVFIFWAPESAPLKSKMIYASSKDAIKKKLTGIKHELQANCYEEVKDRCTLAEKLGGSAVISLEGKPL

B1: sPIF-1(15) (peptide)
peptide: MVRIKPGSANKPSDD
modifications: also: coupled to agarose support
notes: also called synthetic preimplantation factor
binds: all assays above
